Measured values: paper PMC12138080 (Acta Pharmaceutica Sinica. B, 2025)

Target: T1, Human GRK2 protein (His Tag) (human, UniProt P25098 1-689)
T1 sequence: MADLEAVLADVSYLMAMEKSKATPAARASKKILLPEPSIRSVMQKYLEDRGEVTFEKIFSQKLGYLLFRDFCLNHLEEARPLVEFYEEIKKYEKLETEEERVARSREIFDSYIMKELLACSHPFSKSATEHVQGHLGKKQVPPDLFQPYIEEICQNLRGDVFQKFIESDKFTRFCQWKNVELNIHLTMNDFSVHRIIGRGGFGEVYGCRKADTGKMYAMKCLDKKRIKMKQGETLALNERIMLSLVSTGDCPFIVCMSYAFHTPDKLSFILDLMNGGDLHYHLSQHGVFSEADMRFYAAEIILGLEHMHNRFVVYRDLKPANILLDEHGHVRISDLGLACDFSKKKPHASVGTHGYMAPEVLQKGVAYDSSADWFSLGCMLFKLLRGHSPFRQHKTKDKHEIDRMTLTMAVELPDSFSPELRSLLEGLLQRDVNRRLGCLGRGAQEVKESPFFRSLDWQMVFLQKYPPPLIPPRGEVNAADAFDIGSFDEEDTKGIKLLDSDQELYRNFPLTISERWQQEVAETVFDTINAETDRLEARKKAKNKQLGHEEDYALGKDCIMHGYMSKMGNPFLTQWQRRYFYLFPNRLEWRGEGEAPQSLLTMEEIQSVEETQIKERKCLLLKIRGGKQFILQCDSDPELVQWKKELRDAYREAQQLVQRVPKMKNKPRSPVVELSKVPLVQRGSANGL
Assay: SPR

Kd: 31.2 nM
B1: Human TRAF2 protein (His Tag) (natural protein)
chain: MAAASVTPPGSLELLQPGFSKTLLGTKLEAKYLCSACRNVLRRPFQAQCGHRYCSFCLASILSSGPQNCAACVHEGIYEEGISILESSSAFPDNAARREVESLPAVCPSDGCTWKGTLKEYESCHEGRCPLMLTECPACKGLVRLGEKERHLEHECPERSLSCRHCRAPCCGADVKAHHEVCPKFPLTCDGCGKKKIPREKFQDHVKTCGKCRVPCRFHAIGCLETVEGEKQQEHEVQWLREHLAMLLSSVLEAKPLLGDQSHAGSELLQRCESLEKKTATFENIVCVLNREVERVAMTAEACSRQHRLDQDKIEALSSKVQQLERSIGLKDLAMADLEQKVLEMEASTYDGVFIWKISDFARKRQEAVAGRIPAIFSPAFYTSRYGYKMCLRIYLNGDGTGRGTHLSLFFVVMKGPNDALLRWPFNQKVTLMLLDQNNREHVIDAFRPDVTSSSFQRPVNDMNIASGCPLFCPVSKMEAKNSYVRDDAIFIKAIVDLTGL
